Test results reported in the supplement of paper PMC10567573.
± gives the standard deviation.

Experiment: protein stability index of a GFP-peptide fusion (GPS, HEK-293T) (PSI 1-6); higher = more stable
[1] = treatment: DMSO, c terminus: a fixed tail appended
[2] = treatment: MLN4924 1 uM, 8 h, c terminus: a fixed tail appended
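Further: 24-mer peptide tiles fused after GFP, lentivirally expressed, FACS-sorted into six equal bins by GFP/DsRed ratio, decoded by Illumina sequencing, PSI is the read-weighted mean bin number.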

Row | Sequence | protein stability index [1] | protein stability index [2] | protein stability index (treatment: DMSO, c terminus: native) | protein stability index (treatment: MLN4924 1 uM, 8 h, c terminus: native)
1 | AAEEPGVRGLLASLFAFKSFRENW [C2CD2L] | 2.44 ± 0.19 | 2.65 ± 0.032 | – | –
2 | AALIYFAISITAIAKYSDGASKAA [CMTM3] | 3.49 ± 0.37 | 3.43 ± 0.62 | – | –
3 | AANHWVLPAAEFHGLWDSLVYDVE [TRIP13] | 2.62 ± 0.31 | 2.66 ± 0.22 | – | –
4 | AAQFTDFLIPMLEMVPEKRASAGE [SRPK2] | 3.6 ± 0.29 | 3.97 ± 0.29 | – | –
5 | AASLVTMGIVNLNIHMNFTHICRS [SLC2A12] | 3.46 ± 0.27 | 3.16 ± 0.21 | – | –
6 | AAVPDEIPPLEGDEDASRMEEVD [HSP90AB1] | – | – | 5.62 ± 0.27 | 5.68 ± 0.21
7 | AAWLTLWVFGTSFLPFLLCAVLLS [FADS1] | 2.97 ± 0.53 | 3.15 ± 0.69 | – | –
8 | ACDNGLNVRGGKPDDITVLLSIVA [PPTC7] | 2.32 ± 0.59 | 2.16 ± 0.45 | – | –
9 | ADFGRLVNLQHLDLLNNKLVTLPV [LRRC59] | 2.3 ± 0.2 | 2.37 ± 0.21 | – | –
10 | ADWFMSLGVGLLTFASLETVGIYF [TMEM40] | 3.37 ± 0.22 | 3.04 ± 0.52 | – | –
11 | AEDAVYGRDGYDYDGYRLRVEFPR [SRSF1] | 3.37 ± 0.2 | 3.44 ± 0.37 | – | –
12 | AEIQEACCEFLKRQLDPSNCLGIR [KLHL20] | 2.52 ± 0.24 | 2.67 ± 0.34 | – | –
13 | AFARQAAQEPSAVPRAGPLTVNTE [FOXJ1] | 4.54 ± 0.17 | 4.49 ± 0.24 | – | –
14 | AFVLSSNSLKHCTELELFKATCRW [KLHL13] | 2.38 ± 0.55 | 2.23 ± 0.52 | – | –
15 | AGAEPLPRNGDQWHEIRQGRLPRI [WEE1] | 3.86 ± 0.47 | 4.24 ± 0.4 | – | –
16 | AGEGLVRSANGFPYREDEEGAFGE [MAP2] | 5.27 ± 0.18 | 5.24 ± 0.38 | – | –
17 | AGFTGSGPIQLWQFLLELLSDKSC [ETS2] | 2.27 ± 0.19 | 2.12 ± 0.41 | – | –
18 | AGVSLSTLEELLPPNTRVLRVLPN [PYCR3] | 2.79 ± 0.26 | 2.63 ± 0.23 | – | –
19 | AHDNSEELERARELKEKEATLCLE [ANKRD44] | 5.58 ± 0.21 | 5.45 ± 0.26 | – | –
20 | AHSSDVLENVFSSLTDDKYDVAMN [GOLPH3L] | 4.74 ± 0.21 | 4.7 ± 0.3 | – | –
21 | AIQQMGGQWLGGRQIRTNWATRKP [TIA1] | 2.8 ± 0.29 | 3.21 ± 0.44 | – | –
22 | AIQYALNIAFSEAEGARPLRENVP [MATN2] | 2.36 ± 0.21 | 2.08 ± 0.23 | – | –
23 | AKAADSPTRNDLESGLGHFSLRVH | 3.19 ± 0.38 | 3.42 ± 0.48 | – | –

Row | Sequence | protein stability index [1] | protein stability index [2] | protein stability index (treatment: DMSO, c terminus: native) | protein stability index (treatment: MLN4924 1 uM, 8 h, c terminus: native)
24 | AKLVPMGFTTATEFHQRRSEIIQI [RAD51] | 2.56 ± 0.6 | 1.98 ± 0.12 | – | –
25 | AKMGATKEEREDTPIQLQELLALE [TCAP] | 5.28 ± 0.24 | 5.15 ± 0.27 | – | –
26 | AKYCGHLYGLGSGSSYVQNGTGNA [CNOT7] | 2.8 ± 0.3 | 2.78 ± 0.28 | – | –
27 | ALEAAVHVQKLSQECLKQLAIKKQ [TRIM14] | 3.91 ± 0.16 | 3.54 ± 0.52 | – | –
28 | ALNSMLRRRFREKKKAIQEEEERD [YJU2B] | 3.57 ± 0.12 | 3.59 ± 0.1 | – | –
29 | AMEKFREDEGFLREEERPLPRRDF [KCNA3] | 4.74 ± 0.23 | 4.74 ± 0.17 | – | –
30 | AMPMQDIKMILKMVQLDSIEDLEV [PRAME] | 2.25 ± 0.22 | 2.25 ± 0.59 | – | –
31 | APEAKDGSSFSGRVFRVTFLMLAV [APMAP] | 3.47 ± 0.77 | 2.77 ± 0.75 | – | –
32 | APIDWIEEYTTGMADCILVNSQFT [ALG2] | 2.64 ± 0.25 | 2.81 ± 0.49 | – | –
33 | AQEQLRPQTPEPVEGRKHVDVQTE [RSPH3] | 5.41 ± 0.31 | 5.34 ± 0.24 | – | –
34 | ARDTVQVELIPEKKGLFLKHVEYE [SNX8] | 3.65 ± 0.39 | 3.73 ± 0.26 | – | –
35 | ARLKRSQSFGVASASSIKQILLEW [SMTNL2] | 2.33 ± 0.28 | 2.29 ± 0.17 | – | –
36 | ARRRQSAGPWPRPKGSLSMGPAPR [RASAL3] | 3.81 ± 0.25 | 4.03 ± 0.33 | – | –
37 | ARYTMPSSLLAPAKHLIASMLSKN [PLK2] | 2.51 ± 0.39 | 2.91 ± 0.72 | – | –
38 | ASASKFPSSGPVTPQPTALTFAKS [AUP1] | 4.33 ± 0.17 | 4.36 ± 0.38 | – | –
39 | ASGNATQTESGSEEVSSTVHIETF [C10orf62] | 5.11 ± 0.21 | 5.27 ± 0.2 | – | –
40 | ASSLNGGNIKGIEGHSPGNLPKFC [ZC2HC1A] | 3.56 ± 0.078 | 4.02 ± 0.15 | – | –
41 | AVATASRLGPYVLLEPEEGGRAYQ [TRIB3] | 3.79 ± 0.37 | 3.71 ± 0.32 | – | –
42 | AVDAGDPAVEACENRRKVLYQRAP [TCF25] | 4.62 ± 0.21 | 5.02 ± 0.22 | – | –
43 | AVETEGSGSRHPPWARGCGMFTFL [SLC2A12] | 2.11 ± 0.16 | 2.13 ± 0.28 | – | –
44 | AVQQVQRLPFLSSSNLSLDVLRGN [POMP] | 2.87 ± 0.24 | 2.98 ± 0.35 | – | –
45 | AVYFAEADDPTSGFSSIPDAFWWA [KCNA3] | 2 ± 0.16 | 2.12 ± 0.24 | – | –
46 | CCVDVKPISQEKIESERALISQCG [DUSP5] | 3.69 ± 0.26 | 3.63 ± 0.22 | – | –

Row | Sequence | protein stability index [1] | protein stability index [2] | protein stability index (treatment: DMSO, c terminus: native) | protein stability index (treatment: MLN4924 1 uM, 8 h, c terminus: native)
47 | CEEEVFPLAMNYLDRFLSLEPVKK [CCND1] | 3.36 ± 0.16 | 3.3 ± 0.28 | – | –
48 | CEEVKMTVASEAKIQLSDSEAKSH [FAN1] | 5.46 ± 0.17 | 5.47 ± 0.074 | – | –
49 | CEHECVNADGSYLCQCHEGFALNP [MATN2] | 4.77 ± 0.15 | 4.8 ± 0.4 | – | –
50 | CENFPEMATYLRYVRRLDFFEKPD [CSNK1G3] | 2.21 ± 0.25 | 2.59 ± 0.51 | – | –
51 | CEQCGKCKCGECTAPRTLPSCLAC [SPRY1] | 4.34 ± 0.2 | 4.56 ± 0.22 | – | –
52 | CFKSVAKTPYDTSRRQEKSAGDAD [ELOA2] | 4.96 ± 0.3 | 5 ± 0.46 | – | –
53 | CGDGNTETHRAPDLVQWTRHMEAV [SOAT2] | 3.55 ± 0.044 | 3.48 ± 0.31 | – | –
54 | CHFQALGCRTTHSNQEVLQSCLLV [PYCR3] | 2.8 ± 0.23 | 2.67 ± 0.54 | – | –
55 | CITEDGRTVAVGDIVWGKIHGFPW [PWWP2B] | 2.49 ± 0.5 | 2.28 ± 0.45 | – | –
56 | CQYEALVENNRRDVEAWFNTQTEE [KRT36] | 2.86 ± 0.39 | 2.83 ± 0.35 | – | –
57 | CRNCINLQNEAQKRESFLKYKCLL [IQUB] | 2.08 ± 0.44 | 2.22 ± 0.26 | – | –
58 | CSFCKRAFPSGHLLDAHILEWHDS [ZNF511] | 5.19 ± 0.093 | 5.12 ± 0.24 | – | –
59 | CSQLLESSYFDSFQEAQIKRKARN [CDKL4] | 3.51 ± 0.56 | 3.528 ± 0.023 | – | –
60 | CTLGDPNKLPEGVPQPARMPYISD [KLHL20] | 4.13 ± 0.24 | 4.18 ± 0.15 | – | –
61 | CTSSWDKNLKIWNVHTGEFRNCGA [WDR88] | 2.17 ± 0.42 | 2.56 ± 0.31 | – | –
62 | CVRRRYSDFEWLKNELERDSKIVV [SNX12] | 2.7 ± 0.17 | 2.62 ± 0.49 | – | –
63 | DALEDSLEEVAVQQTGDDDEVDDF [PBXIP1] | 5.59 ± 0.28 | 5.67 ± 0.15 | – | –
64 | DARQLFVLAGAAEEGFMTAELAGV [GNAI1] | 2.75 ± 0.37 | 2.92 ± 0.31 | – | –
65 | DCGLNLKQRGYFFLDERLYCESHA [PDLIM4] | 2.43 ± 0.17 | 2.3 ± 0.44 | – | –
66 | DCGTIQENWVCLSCYQVYCGRYIN [HDAC6] | 2.85 ± 1.1 | 2.39 ± 0.63 | – | –
67 | DCLKKFNARRKLKGAILTTMLATR [CAMK2D] | 3.04 ± 0.78 | 3.49 ± 0.37 | – | –
68 | DDCDDDDDDAQILPSPVQACSEDS [DRICH1] | 5.48 ± 0.46 | 5.62 ± 0.24 | – | –
69 | DDKDALVFVLIDEVESLTAARNAC [TRIP13] | 2.21 ± 0.32 | 2.38 ± 0.34 | – | –

Row | Sequence | protein stability index [1] | protein stability index [2] | protein stability index (treatment: DMSO, c terminus: native) | protein stability index (treatment: MLN4924 1 uM, 8 h, c terminus: native)
70 | DDSVMKATQQARKRNFISSKSKQP [C22orf31] | 4.87 ± 0.15 | 4.98 ± 0.2 | – | –
71 | DELALSLGYAASLEASVQDDAGTS [C2CD2L] | 5.34 ± 0.32 | 5.22 ± 0.21 | – | –
72 | DERRQLQHLKSKALRERWLLEGTP [PALM] | 3.54 ± 0.44 | 3.71 ± 0.23 | – | –
73 | DEVDDFEDFIFSHFFGDKALKKRS [PBXIP1] | 3.26 ± 0.23 | 3.29 ± 0.39 | – | –
74 | DEVPGSQGSQASQAPPVPGPPPGA [NR2F2] | 5.45 ± 0.23 | 5.604 ± 0.036 | – | –
75 | DFGFAILGFAYAKEDKIMLDDRKN [MIA2] | 2.05 ± 0.26 | 2.16 ± 0.48 | – | –
76 | DFKSCPQGPQGREGLAFLVSCPEG [PWWP2B] | 3.61 ± 0.15 | 3.75 ± 0.16 | – | –
77 | DGLPLHFFIQTVRPKDTVMCYRVR [MYORG] | 2.15 ± 0.43 | 2.24 ± 0.31 | – | –
78 | DIKAEPQPLSPASSSYSVSSPRSV [ATF6] | 4.61 ± 0.14 | 4.74 ± 0.44 | – | –
79 | DKFKRPTPPPSPNTQTPVQPPPPP [CCDC6] | 5.03 ± 0.091 | 5.12 ± 0.16 | – | –
80 | DKKTCTKIDYCASSNHGCQHECVN [MATN2] | 4.11 ± 0.22 | 4.23 ± 0.13 | – | –
81 | DKPVTGPRNKTENGLTPKKKIQVN [ATF6] | 4.81 ± 0.31 | 4.63 ± 0.32 | – | –
82 | DKVLGTFEFDETSFWNSSHPRGWN [KLHDC2] | 2.93 ± 0.45 | 3.23 ± 0.61 | – | –
83 | DLIDRGWRRSGKYVYKPVMNQTCC [ATE1] | 2.26 ± 0.14 | 2.23 ± 0.23 | – | –
84 | DMRDPTYRPLKQELQGLDYCKPTR [SPSB1] | 3.76 ± 0.59 | 4.04 ± 0.55 | – | –
85 | DNALWERDRNLLQEDKALWEEEKA [CCDC70] | 5.57 ± 0.32 | 5.05 ± 0.31 | – | –
86 | DNLGYRTGYPYRYPALREKSKKYS [ADD1] | 3.56 ± 0.13 | 3.69 ± 0.1 | – | –
87 | DPFDEIILFSLPPALDWDSVHVPG [PTPN9] | 2.55 ± 0.29 | 2.6 ± 0.19 | – | –
88 | DPGVQELEALIDTIQKQLKDHSCK [EFHC1] | 3.93 ± 0.28 | 3.97 ± 0.25 | – | –
89 | DPQNGFDVNNLDPDLRSLFSRAGI [WAS] | 3.93 ± 0.3 | 3.81 ± 0.32 | – | –
